Each block holds one molecule with its values, some of them ahead of it.
What was measured:
Type in all cases: biochemical
[1] = ω-Transaminase activity assay, reverse direction (7-aminoheptanoate to pimelate semialdehyde); settings: cell free extract, 10 mM 7-aminoheptanoate, 10 mM pyruvate, pH 7.5, 25° C., 4 h, against empty vector control
Description: (§1) A sequence encoding an N-terminal His-tag was added to the genes from Chromobacterium violaceum, Pseudomonas syringae, Rhodobacter sphaeroides, and Vibrio Fluvialis encoding the ω-transaminases of SEQ ID NOs: 8, 10, 11 and 13, respectively (see FIGS. 7F and 7G) such that N-terminal HIS tagged ω-transaminases could be produced. Each of the resulting modified genes was cloned into a pET21a expression vector under control of the T7 promoter and each expression vector was transformed into a BL21[DE3] E. coli host. The resulting recombinant E. coli strains were cultivated at 37° C. in a 250 mL shake flask culture containing 50 mL LB media and antibiotic selection pressure, with shaking at 230 rpm. Each culture was induced overnight at 16° C. using 1 mM IPTG.
(§2) The pellet from each induced shake flask culture was harvested via centrifugation. Each pellet was resuspended and lysed via sonication. The cell debris was separated from the supernatant via centrifugation and the cell free extract was used immediately in enzyme activity assays.
Enzyme activity assays in the reverse direction (i.e., 7-aminoheptanoate to pimelate semialdehyde) were performed in a buffer composed of a final concentration of 50 mM HEPES buffer (pH =7.5), 10 mM 7-aminoheptanoate, 10 mM pyruvate and 100 μM pyridoxyl 5′ phosphate. Each enzyme activity assay reaction was initiated by adding cell free extract of the ω-transaminase gene product or the empty vector control to the assay buffer containing the 7-aminoheptanoate and incubated at 25° C. for 4 h, with shaking at 250 rpm. The formation of L-alanine from pyruvate was quantified via RP-HPLC.

[2] = ω-Transaminase activity assay, forward direction (pimelate semialdehyde to 7-aminoheptanoate); settings: for acceptance of pimelate semialdehyde as substrate (formation of pyruvate from L-alanine, RP-HPLC): cell free extract, 10 mM pimelate semialdehyde, 10 mM L-alanine, pH 7.5, 25° C., 4 h, against empty vector control; for reversibility of ω-transaminase activity: accepts pimelate semialdehyde and synthesizes 7-aminoheptanoate: conclusion from reverse and forward direction assays
Description: as §1, §2
Enzyme activity in the forward direction (i.e., pimelate semialdehyde to 7-aminoheptanoate) was confirmed for the transaminases of SEQ ID NO 10, SEQ ID NO 11 and SEQ ID NO 13. Enzyme activity assays were performed in a buffer composed of a final concentration of 50 mM HEPES buffer (pH=7.5), 10 mM pimelate semialdehyde, 10 mM L-alanine and 100 μM pyridoxyl 5′ phosphate. Each enzyme activity assay reaction was initiated by adding a cell free extract of the ω-transaminase gene product or the empty vector control to the assay buffer containing the pimelate semialdehyde and incubated at 25° C. for 4 h, with shaking at 250 rpm. The formation of pyruvate was quantified via RP-HPLC.

[3] = ω-Transaminase activity assay (7-aminoheptanol to 7-oxoheptanol); settings: for acceptance of 7-aminoheptanol as substrate (formation of L-alanine, RP-HPLC): cell free extract, 10 mM 7-aminoheptanol, 10 mM pyruvate, pH 7.5, 25° C., 4 h, against empty vector control; for acceptance of 7-oxoheptanol as substrate forming 7-aminoheptanol: concluded from reversibility of the ω-transaminase activity (Example 2)
Description: A nucleotide sequence encoding an N-terminal His-tag was added to the Chromobacterium violaceum, Pseudomonas syringae and Rhodobacter sphaeroides genes encoding the ω-transaminases of SEQ ID NOs: 8, 10 and 11, respectively (see FIGS. 7F and 7G) such that N-terminal HIS tagged ω-transaminases could be produced. The modified genes were cloned into a pET21a expression vector under the T7 promoter. Each expression vector was transformed into a BL21[DE3] E. coli host. Each resulting recombinant E. coli strain were cultivated at 37° C. in a 250 mL shake flask culture containing 50 mL LB media and antibiotic selection pressure, with shaking at 230 rpm. Each culture was induced overnight at 16° C. using 1 mM IPTG.
as §2
Enzyme activity assays in the reverse direction (i.e., 7-aminoheptanol to 7-oxoheptanol) were performed in a buffer composed of a final concentration of 50 mM HEPES buffer (pH=7.5), 10 mM 7-aminoheptanol, 10 mM pyruvate, and 100 μM pyridoxyl 5′ phosphate. Each enzyme activity assay reaction was initiated by adding cell free extract of the ω-transaminase gene product or the empty vector control to the assay buffer containing the 7-aminoheptanol and then incubated at 25° C. for 4 h, with shaking at 250 rpm. The formation of L-alanine was quantified via RP-HPLC.

[4] = Carboxylate reductase activity assay (N7-acetyl-7-aminoheptanoate to N7-acetyl-7-aminoheptanal); settings: purified enzyme enhanced by sfp gene product, 2 mM N7-acetyl-7-aminoheptanoate, 1 mM ATP, 1 mM NADPH, pH 7.5, room temperature, 20 min, against empty vector control
Description: The activity of each of the N-terminal His-tagged carboxylate reductases of SEQ ID NOs: 3, 6, and 7 (see Example 4, and FIGS. 7B, 7E, and 7F) for converting N7-acetyl-7-aminoheptanoate to N7-acetyl-7-aminoheptanal was assayed in triplicate in a buffer composed of a final concentration of 50 mM HEPES buffer (pH=7.5), 2 mM N7-acetyl-7-aminoheptanoate, 10 mM MgCl2, 1 mM ATP, and 1 mM NADPH. The assays were initiated by adding purified carboxylate reductase and phosphopantetheine transferase or the empty vector control to the assay buffer containing the N7-acetyl-7-aminoheptanoate then incubated at room temperature for 20 min. The consumption of NADPH was monitored by absorbance at 340 nm.

Molecule: SEQ ID NO 11: Rhodobacter sphaeroides ω-transaminase, Genbank Accession No. ABA81135.1
- acceptance of 7-aminoheptanoate as substrate (formation of L-alanine from pyruvate, RP-HPLC) [1]: accepted 7-aminoheptanote as substrate
- acceptance of pimelate semialdehyde as substrate (formation of pyruvate from L-alanine, RP-HPLC) [2]: accepted pimelate semialdehyde as substrate
- reversibility of ω-transaminase activity: accepts pimelate semialdehyde and synthesizes 7-aminoheptanoate [2]: accepted pimelate semialdehyde as substrate and synthesized 7-aminoheptanoate
- acceptance of 7-aminoheptanol as substrate (formation of L-alanine, RP-HPLC) [3]: accepted 7-aminoheptanol as substrate
- acceptance of 7-oxoheptanol as substrate forming 7-aminoheptanol [3]: accept 7-oxoheptanol as substrate and form 7-aminoheptanol

B1: SEQ ID NO 13: Vibrio fluvialis ω-transaminase, Genbank Accession No. AEA39183.1 (protein, listed as Vibrio fluvialis)
chain: MNKPQSWEARAETYSLYGFTDMPSLHQRGTVVVTHGEGPYIVDVNGRRYLDANSGLWNMVAGFDHKGLIDAAKAQYERFPGYHAFFGRMSDQTVMLSEKLVEVSPFDSGRVFYTNSGSEANDTMVKMLWFLHAAEGKPQKRKILTRWNAYHGVTAVSASMTGKPYNSVFGLPLPGFVHLTCPHYWRYGEEGETEEQFVARLARELEETIQREGADTIAGFFAEPVMGAGGVIPPAKGYFQAILPILRKYDIPVISDEVICGFGRTGNTWGCVTYDFTPDAIISSKNLTAGFFPMGAVILGPELSKRLETAIEAIEEFPHGFTASGHPVGCAIALKAIDVVMNEGLAENVRRLAPRFEERLKHIAERPNIGEYRGIGFMWALEAVKDKASKTPFDGNLSVSERIANTCTDLGLICRPLGQSVVLCPPFILTEAQMDEMFDKLEKALDKVFAEVA
- acceptance of 7-aminoheptanoate as substrate (formation of L-alanine from pyruvate, RP-HPLC) [1]: accepted 7-aminoheptanote as substrate
- acceptance of pimelate semialdehyde as substrate (formation of pyruvate from L-alanine, RP-HPLC) [2]: accepted pimelate semialdehyde as substrate
- reversibility of ω-transaminase activity: accepts pimelate semialdehyde and synthesizes 7-aminoheptanoate [2]: accepted pimelate semialdehyde as substrate and synthesized 7-aminoheptanoate

B3: SEQ ID NO 3: Mycobacterium smegmatis carboxylate reductase, Genbank Accession No. ABK71854.1 (protein, listed as Mycobacterium smegmatis)
chain: MTSDVHDATDGVTETALDDEQSTRRIAELYATDPEFAAAAPLPAVVDAAHKPGLRLAEILQTLFTGYGDRPALGYRARELATDEGGRTVTRLLPRFDTLTYAQVWSRVQAVAAALRHNFAQPIYPGDAVATIGFASPDYLTLDLVCAYLGLVSVPLQHNAPVSRLAPILAEVEPRILTVSAEYLDLAVESVRDVNSVSQLVVFDHHPEVDDHRDALARAREQLAGKGIAVTTLDAIADEGAGLPAEPIYTADHDQRLAMILYTSGSTGAPKGAMYTEAMVARLWTMSFITGDPTPVINVNFMPLNHLGGRIPISTAVQNGGTSYFVPESDMSTLFEDLALVRPTELGLVPRVADMLYQHHLATVDRLVTQGADELTAEKQAGAELREQVLGGRVITGFVSTAPLAAEMRAFLDITLGAHIVDGYGLTETGAVTRDGVIVRPPVIDYKLIDVPELGYFSTDKPYPRGELLVRSQTLTPGYYKRPEVTASVFDRDGYYHTGDVMAETAPDHLVYVDRRNNVLKLAQGEFVAVANLEAVFSGAALVRQIFVYGNSERSFLLAVVVPTPEALEQYDPAALKAALADSLQRTARDAELQSYEVPADFIVETEPFSAANGLLSGVGKLLRPNLKDRYGQRLEQMYADIAATQANQLRELRRAAATQPVIDTLTQAAATILGTGSEVASDAHFTDLGGDSLSALTLSNLLSDFFGFEVPVGTIVNPATNLAQLAQHIEAQRTAGDRRPSFTTVHGADATEIRASELTLDKFIDAETLRAAPGLPKVTTEPRTVLLSGANGWLGRFLTLQWLERLAPVGGTLITIVRGRDDAAARARLTQAYDTDPELSRRFAELADRHLRVVAGDIGDPNLGLTPEIWHRLAAEVDLVVHPAALVNHVLPYRQLFGPNVVGTAEVIKLALTERIKPVTYLSTVSVAMGIPDFEEDGDIRTVSPVRPLDGGYANGYGNSKWAGEVLLREAHDLCGLPVATFRSDMILAHPRYRGQVNVPDMFTRLLLSLLITGVAPRSFYIGDGERPRAHYPGLTVDFVAEAVTTLGAQQREGYVSYDVMNPHDDGISLDVFVDWLIRAGHPIDRVDDYDDWVRRFETALTALPEKRRAQTVLPLLHAFRAPQAPLRGAPEPTEVFHAAVRTAKVGPGDIPHLDEALIDKYIRDLREFGLI
- acceptance of N7-acetyl-7-aminoheptanoate as substrate (consumption of NADPH, absorbance at 340 nm) [4]: accepted N7-acetyl-7-aminoheptanoate as substrate

More lines, main results first:

- acceptance of 7-aminoheptanoate as substrate (formation of L-alanine from pyruvate, RP-HPLC) [1]: accepted 7-aminoheptanote as substrate
- acceptance of 7-aminoheptanol as substrate (formation of L-alanine, RP-HPLC) [3]: accepted 7-aminoheptanol as substrate
B2: SEQ ID NO 8: Chromobacterium violaceum ω-transaminase, Genbank Accession No. AAQ59697.1 (protein, listed as Chromobacterium violaceum)
chain: MQKQRTTSQWRELDAAHHLHPFTDTASLNQAGARVMTRGEGVYLWDSEGNKIIDGMAGLWCVNVGYGRKDFAEAARRQMEELPFYNTFFKTTHPAVVELSSLLAEVTPAGFDRVFYTNSGSESVDTMIRMVRRYWDVQGKPEKKTLIGRWNGYHGSTIGGASLGGMKYMHEQGDLPIPGMAHIEQPWWYKHGKDMTPDEFGVVAARWLEEKILEIGADKVAAFVGEPIQGAGGVIVPPATYWPEIERICRKYDVLLVADEVICGFGRTGEWFGHQHFGFQPDLFTAAKGLSSGYLPIGAVFVGKRVAEGLIAGGDFNHGFTYSGHPVCAAVAHANVAALRDEGIVQRVKDDIGPYMQKRWRETFSRFEHVDDVRGVGMVQAFTLVKNKAKRELFPDFGEIGTLCRDIFFRNNLIMRACGDHIVSAPPLVMTRAEVDEMLAVAERCLEEFEQTLKARGLA
- reversibility of ω-transaminase activity: accepts pimelate semialdehyde and synthesizes 7-aminoheptanoate [2]: accepted pimelate semialdehyde as substrate and synthesized 7-aminoheptanoate
- acceptance of 7-oxoheptanol as substrate forming 7-aminoheptanol [3]: accept 7-oxoheptanol as substrate and form 7-aminoheptanol

- acceptance of 7-aminoheptanoate as substrate (formation of L-alanine from pyruvate, RP-HPLC) [1]: accepted 7-aminoheptanote as substrate
- acceptance of 7-aminoheptanol as substrate (formation of L-alanine, RP-HPLC) [3]: accepted 7-aminoheptanol as substrate
B4: SEQ ID NO 10: Pseudomonas syringae ω-transaminase, Genbank Accession No. AAY39893.1 (protein, listed as Pseudomonas syringae)
chain: MSANNPQTLEWQALSSEHHLAPFSDYKQLKEKGPRIITRAEGVYLWDSEGNKILDGMSGLWCVAIGYGREELADAASKQMRELPYYNLFFQTAHPPVLELAKAISDIAPEGMNHVFFTGSGSEGNDTMLRMVRHYWALKGQPNKKTIISRVNGYHGSTVAGASLGGMTYMHEQGDLPIPGVVHIPQPYWFGEGGDMTPDEFGIWAAEQLEKKILELGVENVGAFIAEPIQGAGGVIVPPDSYWPKIKEILSRYDILFAADEVICGFGRTSEWFGSDFYGLRPDMMTIAKGLTSGYVPMGGLIVRDEIVAVLNEGGDFNHGFTYSGHPVAAAVALENIRILREEKIVERVRSETAPYLQKRLRELSDHPLVGEVRGVGLLGAIELVKDKTTRERYTDKGAGMICRTFCFDNGLIMRAVGDTMIIAPPLVISFAQIDELVEKARTCLDLTLAVLQG
- acceptance of pimelate semialdehyde as substrate (formation of pyruvate from L-alanine, RP-HPLC) [2]: accepted pimelate semialdehyde as substrate
- reversibility of ω-transaminase activity: accepts pimelate semialdehyde and synthesizes 7-aminoheptanoate [2]: accepted pimelate semialdehyde as substrate and synthesized 7-aminoheptanoate
- acceptance of 7-oxoheptanol as substrate forming 7-aminoheptanol [3]: accept 7-oxoheptanol as substrate and form 7-aminoheptanol
